Data: the nanobody polyreactivity screen of Harvey et al. (2022)

Test: yeast display, Sf9 membrane polyspecificity reagent, FACS + sequencing; frameworks hold sequencing errors
Method in brief: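 Using colony PCR, genes from sorted yeast display clones were amplified, then sequenced on MiSeq at 2 × 250 and filtered by CDR length. The clones had been stained with 10% biotinylated, detergent-solubilized Sf9 membrane reagent for 1 hour at 4 °C and sorted by FACS into low and high (top ~1%) gates on anti-HA and streptavidin fluorescence. Polyreactivity labels come from the gate of origin.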

Sequence | polyreactivity (PSR sort gate)
QVQLGESGGGLVQAGGSLRLSCAASGSTLYPYAMGWNRQATGTERELFAAISWSGTRTYYADSVKGRFTISRDNAKNTVYLQMNSLKQEDTAVYYCAKSRTRYPSNTKYDYWGQGTQVTVSS | high polyreactivity
QVQLGESGGGLVQAGGSLRLSCADSGFTFASNAMGWYRQAPAKERELVAAISTSGGSTYYADSVKGRFTISRDNAKNTVYLQMNSLKPEDTAVYYFAVAVNGVSRIKYYYWGQGTQVTVSS | high polyreactivity
QVQLGESGGGLVQAGGSLRLSCASSGRILNINSMGWYRQAPGKERELVAAITWRGGRTFYADSVKGRFTISRDYAKNKVYFEMNSLKPEDTAVYYCAASSNTWYPTGYYWGQGSQVTVSS | high polyreactivity
QVQLGESGGGLVQAGGSLRLSGAASGRTFNDYTMGWYRPAPGKERELVAAISSSGVLTYYADSVKGRFTISRDNAKYTVYLQMNSLKPEDTAVDYAKRAGYDRRWTYDYRGQGTQVTVSS | high polyreactivity
QVQLGESGGGLVQAGGSLRLTCAASGFTFRGYAMGWYRQAPGKEWELVAANSRRGGSTYYADSVKGRFTISRDNAKYTVYLQMNSLKPEETAVYYCNAVGRFYFRFPPNNEYDYWGQGTQVTVSS | high polyreactivity
QVQLGESGGGLVQAGGSLRLTCAASGYIFISDAMGLYRQAHGKEREFVAAITGDGGSTYADSVKGRFTISRYNAKNTVYLQMNSLKPEDTAVYYCAAEGQLFDLYDYWGQGTEVTVSS | low polyreactivity
QVQLGESGGGLVQAGGSLSLSCAASGSIFRNYAMGWYRPAPGKEWELVAAITRGGPTNYADSVKGRVTISRDHAKNTVYLQMNRQKPEDTAVYYCNAAWRLGWTHWETTRYVYWGQGTHVTVSS | high polyreactivity
QVQLGESGGRLVQAGGSIRLTCAASGRTFVTYAMAWSRQAPGNEWELVAGIRPGGSTYYADSVKGRFTISRDNAKNTVYLQMNSLKPEDTAVYYCAASRTSWQGYNYWGQGTQVTVSS | high polyreactivity
QVQLGESGGRLVQAGGSLRLSCAASGRTIVINAMGWYRKEPGKERELVAAISRGGSTNYADSVKGRFTISRDNAKNTVYLQMNRLKPEDTAVYYCKADYPNWWSPFDYWGQGTQVTVSS | low polyreactivity
QVQLGETGGGLVQAGGSLRLSCAASGFNFGYYVMGWYRQAPGKERELVAAITSGGSKYYADSVKGRFTISRDNAKNTVYLQMNSLKPEDTAVYYCNKYGVVLPGFDEWGQGTQVTVSS | high polyreactivity
QVQLHESGCGLVQAGGSLRLSCAASGTISYAGPMGWYRPAPGNEREFVAGIGVGSNTNYADSVKGRYTIIRDNATNTVYLQMNSLKPEDTAVYYCAVGGYAPLGRPYWGQGTQVTVSS | low polyreactivity
QVQLHESGCVLVQAGGSLRLRCAASRNISGSSDLGWYHQAPGKEREFVASITSGGTTYYADSVKVRFTISRDNAKNTVYLQMNSLKPEDTAVYYCAVGDPADAEFGYWGQGTQVTVSS | low polyreactivity
QVQLHESGGGLCRRAAASSGAASGTISFLYYMGWYRQAPGQEREFVAGINNGTTTNYADSVKGRFTNSRDNAKNTVYLQMNSLKPEDTAVYYCAVRKPYKATTASGFEYWGQGTQVTVSS | high polyreactivity
QVQLHESGGGLVQAGGSLRLSCAASGTISYAGPIGWYRQAPGKEREFVAGIGVCSNTNYADSVKGRYTIIRDNAKNTVYLQMNSLKPEDTAVYYCAAETDSWVGGYSYASLDYWGQGTQVTVSS | low polyreactivity
QVQLHESGGGLVQAGGSLRLSCAASGTISYAGPMGWYRQAPGKEREFVAGIGVGSNTNYADSVKGRYTIIRDNAKNTVYLQMNSLKPEDTAVYYCAVGGYAPLGRPDWGQGTQVTVRS | low polyreactivity
QVQLHESGGGLVQAGGSLRLSCAASGTISYAGPMGWYRQAPGKEREFVAGIGVGSNTNYADSVKGRYTIIRDNAKNTVYLQMTSLKPEDTAVYYCAVGGYAPLGRPYWGQGTQVTVSS | low polyreactivity
QVQLHESGGGLVQARGSLRLSCAASGTSSNAGPMGWYRQAPGKEREFVAGIGVGSNTNYADSVKGRYTIIRDNAKNTVYLQMNSLKPEDTAVYYCAVGGYAPLGRPYWGQGTQVTVSS | low polyreactivity
QVQLHESGGGLVQSGGSLRLICAASGSISHYIFMGWYRQAPGKEREFVAGIGYGGTTNNADSVKGRFTISRDNAKNTVYLQMNSLKPEDTAMYYCAAREATEFYLDYWGQGTQVTVSS | low polyreactivity
QVQLHESGRGLVQAGGSLRLSCAASGTISYAGQMGWYRQAPGKEREFVAAIGVGSNTNYADIVKGRYTIIRYNAKNSVYLQIISLKPEDTAVYYCAVGCYAPLGRPFWGQGTQVTVSS | low polyreactivity
QVQLHESGVGLVQAGGGLRLSCAATGSISSTGFMGWYRQAPGKEREPVAAIAPGTTTYYADSVKGRFTISRDNAKNTVYLQMNSLRPEDTAVYYCAVFTDNRVAFLYWGQGTQVTVSS | low polyreactivity
QVQLIESGGGLVKAGGSLRLSCAASGSIFYRNTMGWYRQAPGKERELVARISWSGGRTYYADSVKGRFTISRDNAKNTVYLQMNSLKPEDTAVYYCAASTYGQRGTSYGYWGQGTQVTVSS | low polyreactivity

Sequence | polyreactivity (PSR sort gate)
QVQLIESGGGLVQAGGSLRLSCAASGFTFYYNTMGWYRQAPGKERELVAAITRSVGSTYYADSVKGRFTISRDNAKNTVYLQMNSLKPEDTAVYYCAARRLGYYRKVKELDYWGQGTQVTVSS | high polyreactivity
QVQLIESGGGLVQAGGSLRLSCAASGSIFAANAMGWYRQAPGKEREFVASISYTGASTYADSVKGRFTISRDNAKNTVYLQINSLKPEDTAVYYCAKDGYWTGLDPYYYWGQGTQVTVSS | low polyreactivity
QVQLKERGGGLVQAGGSLRLSCAAIGPISRRSTMGWYRQAPGKERELVTDITRGTNTNYADSVKGRFTISRDNAKNTEYLQMNSLKPEDTAVYYCEAYGVLKPSRGDAVFHRYWGQGTQVTVSS | low polyreactivity
QVQLKESGGCLVPSRGSLRQSCAASGSISGPHVKGWYRQAPGKEREFVAAINVGANTYYADNVKGRFTISRDNANNPGYLQMNSLKPEDTAVYFCAAVYFGDIGHEYWGQGTQVTVSC | low polyreactivity
QVQLKESGGGLVQSGGSLRLSCAASGNIVDADIMGWYRQAPGKERELVASITDGGSTNYADSVKGRFTISRDNAKNTVYLQMNSLKPEDTAVYYCAAIAYPDIPTYFDYDSEYFYWGQGTQVTVSS | low polyreactivity
QVQLLDSGGGLVQAGGSLSLSCAASGSSFRYYAMGWYRPAPRKEREFVADISWSGSSTYYADSVKGRFTISRDNSKITVYLLMNSLTPEDTAVYYCAARYRYRSSSYDYWGQGTQVTVSS | high polyreactivity
QVQLLESCVGLVHAGGSLRLSCAASGFIFGTNAMGWSRQAPGKEREWVAAINGRGGGTYYADSVKGRFTISRDNAKNTVYLQMNSLKQEDTAVYYCAASRFDYWGQGTQVTVSS | low polyreactivity
QVQLLESGAGLLQAGGSLRLSCAASGRTFLKYAMGWYRQAPGKERELVAAISRGDSTYYADSVKGRFTISRDNAKNTVYLQMNSLKTEDTAVYFCAKPGYYVRYGYWGQGTQVTVSS | high polyreactivity
QVQLLESGGAIVQAGGSHRLSCAASGSIFTHYAMGWYRQATGKERELVAGITSSGGSTYADSVKGRFTISRDNAKNSVYLQMISLKPEDTAVYYCAAEQLRSRLIEYDYWGQGTQVTVSS | low polyreactivity
QVQLLESGGGIVQAGGILRLSCAASGITIGWYAMGWYRPAPGKERELVASISSSGSTNYADSVKGLFTISRDNAKNTFYLQMNSMKPEDTAVYYCNKDYLLRHYYIYVIEGDYWGQGTQVTVSS | low polyreactivity
QVQLLESGGGLFQAGGSLRLSCAASGYTFSRNAMGWYRTAPGKERELVAANTGSGGSTYYADSVKGRFTISRDNAQNTVYYQMNSLKPEDTAVYYCATEVKRGYVGFDYWGQGTQVTVSS | low polyreactivity
QVQLLESGGGLLQAGASLLLSCAASGNIFYRNAMGWYRQAPGKERELVAAISSGGITYYADSVKGRYTISRDNAKNSVSLQMNSLKPEDTAVYYCAAYIRNWRATYEYWGQGSQVTVSS | high polyreactivity
QVQLLESGGGLVQAGASLRLSCAASGSICWVYDMGWYRQAPGKERELVAAISQSGGSTYYADSVKGRFTISRDNAKNTVYFQMNSLKPEDTAGYYCAAYVRGQNYDYWGQGTQVTVSS | high polyreactivity
QVQLLESGGGLVQAGGRLRLSCADSGGIIAYNAIGWYRQAPAKERELVAAISSSGGRTYYADSVKGRFTISRDNAKITVYLQMNSLKPEDTAVYYFAAVRSGIEYGYWGQGTQVTVSS | high polyreactivity
QVQLLESGGGLVQAGGRLRLSCAPSGRSIRYYTMGWYRQAPGKERELVAAISRSGDSTYYADSVKGRFTISRDNEKNTVYVQLKCLIPVDTAVYYCAASLVYQFCYDYWGQGTQVSVSS | high polyreactivity
QVQLLESGGGLVQAGGSHRLSCASSGRTFSRYAMGWYRQAPGKERELVAAISYSGGSTYADSVKGRFTISRDNAKNTVYLQMIRLKPEDTAVYYCAAEKYVYWFSYQYGYWGQGTQVSVSS | high polyreactivity
QVQLLESGGGLVQAGGSLRFSCAASGFTFPVYAMGWYRQAHGKEREFVAAISWSGGSTSYADSVKGRFTSSRDNAKNTVYLQMNSLKPEDTAVYYCAAEHEQYTQLDYWGQGTQVTVAS | high polyreactivity
QVQLLESGGGLVQAGGSLRISCASSVRISPRYAMGWYRQAPGKERELVAAIDTSDGTTYYADSVKGRFTISRDNAMKTVYFQMNSLKPEDTAVYYCAAEGQLFDLYDYWGHGTQVTVSS | low polyreactivity
QVQLLESGGGLVQAGGSLRLICAASGLIFGPYTMGWYRQAPGKERELVAAITRSGGRTYYADSVKGRFTISRDNAKNTVYLQMNRLKPEDTAVYYCAAYGGQSWDYDYWGQGTQVTVSS | high polyreactivity
QVQLLESGGGLVQAGGSLRLSCAASGFIFSKYAMGWYRQAPGKERELVAGINRSGGSTYYADSVKGRFTISRDNAKNTVYFQMNSLKPEDTAVYYCAAPFGVQSRWYGQSGYWGQGTQVTVSS | high polyreactivity
